Results taken from patent publication US20250134962A1 (published 2025).
Where two headings read alike, the source gives them in different places.

Experiments:
GPC3 [1] = biological target: T1, GPC3 (UniProt P51654 25-554); experiment: flow cytometry; HepG2 cells
GPC3 [2] = biological target: T1, GPC3; experiment: flow cytometry; HepG2 cells; remark: listed apart in the source

B1: Codrituzumab (antibody, V domains shown)
VH: QVQLVQSGAEVKKPGASVKVSCKASGYTFTDYEMHWVRQAPGQGLEWMGALDPKTGDTAYSQKFKGRVTLTADKSTSTAYMELSSLTSEDTAVYYCTRFYSYTYWGQGTLVTVSS
VL: DVVMTQSPLSLPVTPGEPASISCRSSQSLVHSNRNTYLHWYLQKPGQSPQLLIYKVSNRFSGVPDRFSGSGSGTDFTLKISRVEAEDVGVYYCSQNTHVPPTFGQGTKLEIKR
GPC3 [1]
  EC50: 0.529 nM
GPC3 [2]
  EC50: 0.529 nM
